These results are taken from patent US20030068630A1 (MYRIAD GENETICS, published 2003).

This experiment concerns the target T1, Mineralocorticoid receptor (MCR) amino acids 603-985, Gal4 DNA-binding-domain bait fusion (Saccharomyces cerevisiae, UniProt P04386 1-147; P08235 603-984).
T1 construct: range 1-147;range 603-985; Bait made as a C-terminal fusion to Gal4 DBD in vector pGBTQ; also called MCR AA 603-985
Nature of the experiment: yeast two-hybrid (Gal4, beta-galactosidase read-out) with 4 uM aldosterone; bait MCR AA 603-985. On the procedure:
DNA was prepared from each clone, transformed by electroporation into E. coli strain KC8 (Clontech KC8 electrocompetent cells, cat. # C2023-1), and the cells were selected on ampicillin-containing plates in the absence of either tryptophane (selection for the bait plasmid) or leucine (selection for the brain library plasmid). DNA for both plasmids was prepared and sequenced by di-deoxynucleotide chain termination method. The identity of the bait cDNA insert was confirmed and the cDNA insert from the brain library plasmid was identified using BLAST program against public nucleotides and protein databases. Plasmids from the brain library (preys) were then individually transformed into yeast cells together with a plasmid driving the synthesis of lamin fused to the Gal4 DNA binding domain. Clones that gave a positive signal after β-galactosidase assay were considered false-positives and discarded. Plasmids for the remaining clones were transformed into yeast cells together with plasmid for the original bait. Clones that gave a positive signal after ,galactosidase assay were considered true positives.
A yeast two-hybrid system as described in Example 1 was performed in the presence of aldosterone. […]

B1: PN19395 amino acids 120-397, Gal4 activation-domain prey fusion (other, Saccharomyces cerevisiae, not shown: small tags and cut ends)
chain: ANFNQSGNIADSSLSFTFTNSSNGPNLITTQTNSQALSQPIASSNVHDNFMNNEITASKIDDGNNSKPLSPGWTDQTAYNAFGITTGMFNTTTMDDVYNYLFDDEDTPPNPKKELMPGAGLLPIPTPNPLTTLGVSLSSLGAIPAAALDPNIATLGEIPQPPLMGNVDPSKIDEIRRTVYVGNLNSQTTTADQLLEFFKQVGEVKFVRMAGDETQPTRFAFVEFADQNSVPRALAFNGVMFGDRPLKINHSNNAIVKPPEMTPQAAAKELEEVMKRVREAQSFISAAIEPESGKSNERKGGRSRSHTRSKSRSSSKSHSRRKRSQSKHRSRSHNRSRSRQKDRRRSKSPHKKRSKSRERRKSRSRSHSRDKRKDTREKIKEKERVKEKDREK
notes: range 768-881; Novel 624 amino acid protein; Clone from a human brain cDNA library in pACT2
For B1, the binding result is listed as “binds”.
